Experimental data published in US20100279409A1, “METHOD FOR MODIFYING CELLUAR IMMUNE RESONSE BY MODULATING ACTIVIN ACTIVITY” (priority 2007, published 2010).

Key:
Human MoDCs = test: Activin-A secretion by stimulated MoDCs; type: cell-based; settings: MoDCs in GM-CSF and IL-4, 2-72 hours
Method: Human MoDCs were co-cultured, in a medium containing both GM-CSF and IL-4, with one of (i) intact E. coli, (ii) CD40L, (iii) a TLR ligand (LPS, R848, Poly I:C, or Pam3Cys, which bind, respectively, to TLR4, 7/8, 3, and 2/6), or (iv) one of the inflammatory mediators PGE2 or ATP. Culture was carried out for from 2-72 hours. Supernatants were collected, and assayed for activin-A, using standard methods.

Human NK cells = test: IFN-γ ELISA of purified NK cells; type: cell-based; settings: for IFN-γ production: NK cells
Method: A total of 1×10^5 highly purified human NK cells were cultured for 20 hours in medium supplemented with 20 U/ml IL-2, and 10 ng/ml IL-12. Either human recombinant activin-A, or TGF-β was added to the cultures, at concentrations of 10, 50 and 100 ng/ml. Supernatants were then tested for IFN-γ via ELISA, using standard methods. In these experiments 1×10^5 highly purified human NK cells were cultured as above, but were cultured with Poly I:C (10 μg/ml), or LPS (100 ng/ml), with or without 10, 50, or 100 ng/ml of recombinant human activin-A. In some cases, the known compound “SB431542,” which blocks activin-A binding to receptors was added. IFN-γ was then measured via ELISA, or by intracellular cytokine staining after 16 hours of culture, via addition of 1 μg/ml BFA, to prevent cytokine release. The impact of activin-A on production of IFN-γ by NK cells, in the absence of dendritic cells, was ascertained. Purified NK cells (1×10^5) were cultured in 96 well-plants, in media that was supplemented with 20 U/ml IL-2 and 10 ng/ml, IL-12, in the absence of, or with increasing concentrations of either activin-A, or TGF-β. Culture supernatants were assayed for IFN-γ after 24 hours of culture, using ELISAs, as described supra. As in the prior experiments, 1×10^5 purified NK cells were cultured in media supplemented with IL-2 only, or IL-2 plus IL-12, either with or without one of poly I:C or LPS, in the presence or absence of increased levels of activin-A.

MoDCs [1] = test: qRT-PCR kinetics of activin receptor mRNA in stimulated MoDCs; type: cell-based, human
Method: In follow up experiments, the kinetics of gene expression described in Example 1 were studied, by stimulating MoDCs with either of trimeric CD40L or LPS, via quantitative real time PCR, or “qRT-PCR,” using standard methods and primers specific for activin βA and the activin receptor molecules ALK-2, and ALK-4. The primers differed from those used in the RT-PCR work, described supra. Stimulus was accomplished with 2 μg/ml of CD40L trimer, or 100 ng/ml of E. coli derived LPS for anywhere from 2-24 hours. As a control, MoDCs were cultured in GM-CSF plus IL-4 for the same length of time.

[2] = test system: NK cells (target cells K562 or Jurkat cells); test: NK cell killing of calcein-labeled target cells; type: cell-based, human; settings: 100 ng/ml, 3 days culture, K562 or Jurkat targets, 4 hours
Method: 1×10^6 purified NK cells were cultured in 24 well-plates, either with a high dose of IL-2 (100 U/ml), or a combination of 20 U/ml of IL-2 and IL-12. The culturing took place in the absence of either of activin-A or TGF-β or 100 ng/ml of one of them. The culture continued for 3 days.
After the 3 days of culture, the NK cells were combined with target cells K562 or Jurkat cells, at effector (NK cells): target (K562 or Jurkat cells) ratios of 5:1, 2:1, and 0.1:1. The target cells had been labeled with calcein previously. The total number of labeled target cells was 2×10^4, and the mixture was incubated for 4 hours. The efficiency of killing was determined by measuring calcein dye release via spectrometry.

NK cells [3] = test: NK cell viability by caspase and PI staining; type: cell-based, human; settings: 24 hours
Method: With respect to testing viability, 1×10^5 purified NK cells were cultured as described supra, in 96 well-plates. After 24 hours of culture, cells were stained with antibodies to polycaspase, caspase 3/7, caspase 8 and PI.

NK cells [4] = test: NKp30 expression on NK cells by flow cytometry; type: cell-based, human; settings: NK cells after 3 day culture, 100 ng/ml
Method: In order to investigate the mechanism behind these differences, the same NK cells were purified and cryopreserved immediately after the 3 day culture period. The cells were thawed, washed, and stained for NCR. NKp30, with expression levels determined via flow cytometry. The level of expression was also determined using “ex vivo” samples, and NK cells that were cultured, without exposure to targets.

immature MoDCs = test: Activin-A ELISA of CD40L-stimulated MoDCs with follistatin; type: cell-based, human; settings: CD40L 2 μg/ml
Method: The early autocrine/paracrine release of activin-A by MoDCs was viewed as a possible potentiating feedback loop to further activin-A production. To test this, immature MoDCs were cultured with 2 μg/ml of CD40L, together with increasing concentrations of follistatin (0-400 ng/ml). Supernatants were collected over a 6 hour period and activin-A was qualified in a standard ELISA.

MoDCs [5] = test: IL-6 and cytokine ELISA of stimulated MoDCs with follistatin; type: cell-based, human; settings: for IL-6 production: follistatin 0, 20, 100 ng/ml
Method: Prior studies had shown that, in an in vivo LPS challenge model, activin-A is released into the circulatory system rapidly, and can be detected prior to IL-6, and just prior to TNF-α release. […] This was tested by combining MoDCs with trimeric CD40L, or LPS, at a fixed concentration, together with varying concentrations of follistatin (0, 20, and 100 ng/ml) MoDCs were combined with GM-CSF and IL-4 as a control. Supernatants were collected after 4 hours, 24 hours, and 48 hours of culture, and then assayed for IL-6 via a standard ELISA.
Further experiments were then carried out, using trimeric CD40L or concentrations of LPS and follistatin that were even higher (1 ng/ml-150 ng/ml for LPS, and 400 ng/ml for follistatin).

[6] = test system: MoDCs co-cultured with NK cells; test: IFN-γ production in MoDC and NK cell co-culture with follistatin; type: cell-based, human
Method: The dendritic cells were obtained by culturing CD14^+ monocytes with GM-CSF and IL-4, for 6-7 days, which are standard culture conditions. A sample of 5×10^4 MoDCs were co-cultured with 1×10^5 NK cells, either with or without 400 ng/ml follistatin. As controls, samples of each type of cell were cultured individually.
IFN-γ production was measured, as described supra.
To test this, 5×10^4 immature MoDCs were cultured, in 96 well-plates, in standard media supplemented with 20 U/ml IL-2 and 20 ng/ml GM-CSF only, or with the addition of 1×10^5 autologous NK cells. In addition, the cells were stimulated with IL-12 and poly I:C. In addition, 400 ng/ml of follistatin was added to cultures in order to neutralize activin-A.
After 24 hours, supernatants were collected, and assayed for IFNγ via a standard ELISA.

MoDCs [7] = test: IL-10 secretion and mRNA in MoDCs with follistatin; type: cell-based, human
Text: Supernatants were screened, via standard ELISAs, for a large array of cytokines and chemokines, including pleiotropic IL-10.

[8] = test system: CD8+ T cells co-cultured with MoDCs; type: cell-based, human; settings: follistatin 400 ng/ml, nine days, IFN-γ secretion and CD107a expression
MoDCs [9] = test: qRT-PCR of IL-6 mRNA in MoDCs with follistatin; type: cell-based, human; settings: follistatin 400 ng/ml
Method: When qRT-PCR was carried out, a 15 fold increase in IL-6 mRNA expression was observed 2 hours after MoDC stimulation and the 400 ng/ml dose of follistatin, with a peak at 4 hours, (30 fold), with a decrease over 6-24 hours.

MoDC = test: Chemokine secretion by CD40L-stimulated MoDCs with follistatin; type: cell-based, human; settings: 24 hours, increasing follistatin
Method: MoDC culture supernatants were screened following 24 hours of culture, using controls, and increasing concentration of follistatin, as described supra. Assays were carried out, following standard methods, for IL-12p70, TNF-α, IL-8, IP-10, RANTES, and MCP-1.

MoDCs [10] = test: IL-12p35 expression, IL-12p70 and TNF-α secretion by CD40L-stimulated MoDCs; type: cell-based, human
Method: In view of this, the experiments were extended to investigate the impact, if any on IL-12p70, a potent TH1 cytokine, and pro-inflammatory TNF-α. The experiments were carried out in the same way as the prior experiments were.

[11] = CD40L-stimulated MoDCs with follistatin

Nc1ncnc2c1ncn2[C@@H]1O[C@H](COP(=O)(O)OP(=O)(O)OP(=O)(O)O)[C@@H](O)[C@H]1O [ATP]
activin-A secretion (Human MoDCs): neither of these stimulated activin-A release above the levels observed in unstimulated MoDC cultures

CCCCC[C@H](O)/C=C/[C@H]1[C@H](O)CC(=O)[C@@H]1C/C=C\CCCC(=O)O [PGE2]
activin-A secretion (Human MoDCs): neither of these stimulated activin-A release above the levels observed in unstimulated MoDC cultures

CCOCc1nc2c(N)nc3ccccc3c2n1CC(C)(C)O [R848]
activin-A secretion (Human MoDCs): significant amounts of activin-A after 6 hours of stimulation

NC(=O)c1ccc(-c2nc(-c3ccc4c(c3)OCO4)c(-c3ccccn3)[nH]2)cc1 [SB431542, reference compound]
activin-A suppression of IFN-γ production (Human NK cells; added at a concentration of 10 for 30 minutes before activin-A): reversed

CD40L: trimeric CD40L used to stimulate MoDCs
activin RIIA mRNA (MoDCs [1]; after 2 hours): upregulated
ALK-4 mRNA (MoDCs [1]; after 24 hours of stimulation, vs controls): significantly higher than controls
ALK-4 mRNA (MoDCs [1]; early in the culture period): downregulated
activin RIIB mRNA (MoDCs [1]; over 2-24 hours): early down regulation, followed by increases over time

Pam3Cys
activin-A secretion (Human MoDCs): did not

Poly I:C [reference compound]
IFN-γ production induced by stimulus (Human NK cells; added to stimulated NK cultures): enhanced IFN-γ production
activin-A secretion (Human MoDCs): significant amounts of activin-A after 6 hours of stimulation

TGF-β
killing ability of NK cells [2]: significantly suppressed
apoptosis (polycaspase, caspase 3/7, caspase 8, PI staining) (NK cells [3]): no indication of apoptosis
IFN-γ production (Human NK cells; IL-2 and IL-12, 20 hours, 10, 50, 100 ng/ml): suppressing the production of IFN-γ
IFN-γ production (Human NK cells; IL-2 and IL-12, 24 hours, increasing concentrations): inhibiting IFN-γ production
NKp30 expression (NK cells [4]): substantial down regulation of the receptor

B1: follistatin (protein, UniProt P19883 30-344, looked up)
Follistatin: GNCWLRQAKNGRCQVLYKTELSKEECCSTGRLSTSWTEEDVNDNTLFKWMIFNGGAPNCIPCKETCENVDCGPGKKCRMNKKNKPRCVCAPDCSNITWKGPVCGLDGKTYRNECALLKARCKEQPELEVQYQGRCKKTCRDVFCPGSSTCVVDQTNNAYCVTCNRICPEPASSEQYLCGNDGVTYSSACHLRKATCLLGRSIGLAYEGKCIKAKSCEDIQCTGGKKCLWDFKVGRGRCSLCDELCPDSKSDEPVCASDNATYASECAMKEAACSSGVLLEVKHSGSCNSISEDTEEEEEDEDQDYSFPISSILEW
activin-A production (immature MoDCs; follistatin 0-400 ng/ml, first 2-4 hours): dose dependent decreases in activin-A production
activin-A production (immature MoDCs; follistatin 400 ng/ml, at 6 hours): unable to abrogate the level of activin-A production
IL-6 production (MoDCs [5]; CD40L-stimulated MoDCs): as follistatin concentration increased, so too did IL-6 production
LPS mediated IL-6 production (MoDCs [5]; LPS 1 ng/ml-150 ng/ml, follistatin 400 ng/ml): not LPS mediated IL-6 production, at any dose
IL-6 production (MoDCs [5]; LPS-stimulated MoDCs): did not influence its production
CD40L mediated production of IL-6 (MoDCs [5]; follistatin 400 ng/ml): dramatically enhanced
MoDC cytokine production (MoDCs [5]; follistatin alone, no other stimulus): did not induce MoDC cytokine production
IFN-γ production ([6]; MoDCs co-cultured with NK cells, follistatin 400 ng/ml): increased markedly
IFN-γ production ([6]; NK cells alone stimulated with cytokines): had no impact
IFN-γ production ([6]; immature MoDCs and autologous NK cells, IL-12 and poly I:C, follistatin 400 ng/ml, 24 hours): significant increases in IFN-γ production
IL-10 mRNA expression (MoDCs [7]; CD40L-stimulated MoDCs with follistatin, peak at 4 hours): increased IL-10 mRNA expression
CD40L mediated IL-10 secretion (MoDCs [7]; MoDCs with follistatin): enhanced IL-10 secretion by the MoDCs in a dose dependent manner
E. coli mediated IL-10 secretion (MoDCs [7]; MoDCs with follistatin): did not impact
percentage of influenza matrix specific CD8+ T cells displaying effector function [8]: significantly increased
total number of influenza matrix specific CD8+ T cells displaying effector function [8]: significantly increased
increase in IL-6 mRNA expression (MoDCs [9]; 2 hours after MoDC stimulation): 15 fold
increase in IL-6 mRNA expression (MoDCs [9]; peak at 4 hours): 30 fold
IL-8 production (MoDC): substantially enhanced
MCP-1 production (MoDC): substantially enhanced
RANTES production (MoDC): substantially enhanced
IL-12p70 protein secretion (MoDCs [10]; [11]): dose dependent enhancement
TNF-α secretion (MoDCs [10]; [11]): dose dependent enhancement peaking at 24 hours
IL-12p35 expression vs CD40L alone (MoDCs [10]; at 24 hours, CD40L plus follistatin): at least 15 fold
IL-12p70 secretion (MoDCs [10]; follistatin alone, without any other stimulus): did not induce IL-12p70 secretion
